24 molecules from patent US20180334496A1 (KODIAK SCIENCES, published 2018) can be followed below.

Where a chain is given by its changes, count along the chain named. Where “and” joins values, the source holds several entries; their conditions need not be identical. Equal values may be shown once.

B1: KCD001 (antibody, V domains shown)
VH: EVQLQQSGPELVKPGASVKISCKASDNSFTGYYMHWVKQSHGNILDWIGYIDPYNGVSSYNQKFKGKATLTVDKSSSTAYMEIRSLTSEDSAVYYCASYYGSSPYWYFDVWGTGTTVTVSS
VL: QIVLSQSPAILSASPGEKVTMTCRASSSVSYMHWYQQKPGSSPKPWIYATSNLASGVPARFSGSGSGTSHFLTISRLEAEDAATYFCQQWSSNPYTFGGGTKLEIK
B2: KCD005 (antibody, V domains shown)
VH: EVQLQQSGPELVKPGASVKISCKASGYTFTDHYMNWVKQSHGKSLEWIGDINPNNGGTSCNQKFKGKATLTVDKSSSTAYMELRSLTSGDSAVYYCTREGASFAFWGQGTLVTVSA
VL: DVLMTQTPLSLPVSLGDQASISCRSSQSIVHSNGDTYLEWYLQKPGQSPKLLIYKVSNRFSGVPDRFSGSGSGTDFTLKISRVEAEDLGVYYCFQGSHVPVTFGAGTKLELK
B3: KCD124 (antibody, V domains shown)
VH: B2 VH with C60Y
VL: B2 VL with V101L
B4: KCD112 (antibody, V domains shown)
VH: EVQLQQSGPELVKPGASVKISCKASGYSFTAYYMNWVKHSPEKSLEWIGDINPSTGGTTYNQKFKARATLTVDKSSSTAYMQLKSLTSEDSAVYYCATTYYSGNSYVGFAYWGQGTLVTVSA
VL: DIVMTQSHKFMSTSVGDRVSITCKASQDVSTAVAWYQQKPGQSPKLLIFWTSTRHTGVPDRFTGSGSGTDYTLTISSVQAEDLALYYCQQHYTTPWTFGGGTKLEIK
B5: KCD115 (antibody, V domains shown)
VH: B4 VH with A31G, H39Q, R67K, T99P, S102Y, N104S
VL: B4 VL with A34D, F49Y, T51A, T93S
B6: KCD111 (antibody, V domains shown)
VH: B1 VH with D26G, N27Y, G31D, T71S, K74Q, I83L, A97S, T116R
VL: B1 VL with A59T, H70Y, F71S, R76K, F86Y
B7: KCD006 (antibody, V domains shown)
VH: EVQLQQSGAELVKPGASVKLSCTASGFKIKDTYMHWVKERPEQGLEWIGRIDPANGNTKYDPKFQGKATITADTSSNTAYLQLSSLTSEDTAVYYCANAMDYWGQGTSVTVSS
VL: QIILTQSPAIMSASPGEKVTMTCSARSSVSNMYWYQQKPGSSPRLLIYDTSNLASGVPVRFSGSGSGTSYSLTISRMEAEDAATYYCQQWSSYPWTFGGGTKLEIK
B8: KCD232 (antibody, V domains shown)
VH: EVQLVESGGGLVQPKGSLKLSCAASGFSFNTYAMNWVRQAPGKGLEWVARIRSKSNNYATYYADSVKDRFTISRDDSESMVYLQMNNLKTEDTAMYYCVRHGYYWYFDVWGTGTTVTVSS
VL: B2 VL with N33D, D35N, K55R, V83M, V101Y, A105G, L111I
B9: KCD129 (antibody, V domains shown)
VH: B8 VH
VL: B2 VL with N33D, D35N, K55R, V83M, V101Y, A105G, L111I
B10: KCD207 (antibody, V domains shown)
VH: B8 VH with E1A, I72L, V81L, H101Q, Y103F
VL: B2 VL with S28T, D35N, P45S, K55N, S68R, V101Y, A105S, L111I
B11: KCD229 (antibody, V domains shown)
VH: B8 VH with S73F, V81L
VL: B2 VL with T7N, D35N, K50N, K55N, S57F, V101Y, A105S, L111I
B12: KCD216 (antibody, V domains shown)
VH: QVHLQQSGPELVKPGASVKISCKASGYTFIDYYINWVKQRPGQGLEWIGWIFPGSDSTYYNEKFKGKATLTVDKSSSTAYMLLSSLTSEDSAVYFCARYGYYGSSFYAMDYWGQGTSVTVSS
VL: DIQMTQSPASLSVSVGETVTITCRASENIYSNLAWYQQKQGKSPQLLVYAATNLADGVPSRFSGSGSGTQYSLKINSLQSEDFGSYYCQHFWGTPPTFGGGSKLEIK
B13: 54I59D / 54G60W101 (antibody, V domains shown)
VH: EVQLVESGGGLVQPGGSLRLSCAASGYTFTDYYMNWVRQAPGKGLEWIGDINPITGDTDYNADFKRRFTFSLDTSKSTAYLQMNSLRAEDTAVYYCTREGPSFAYWGQGTLVTVSS
VL: DIQLTQSPSSLSASVGDRVTITCRSSQTIVHSNGDTYLEWYQQKPGKAPNLLIGKVSNRWSGVPSRFSGSGSGTDFTLTISSLQPEDFATYYCFQGSHVPVTFGQGTKVEIK
B14: 31S54V59D / 54R101V (antibody, V domains shown)
VH: B13 VH with D31S, I54V
VL: DIQLTQSPSSLSASVGDRVTITCRSSQTIVHSNGDTYLEWYQQKPGKAPNLLIRKVSNRFSGVPSRFSGSGSGTDFTLTISSLQPEDFATYYCFQGSHVPVTFGQGTKVEIKR
notes: KCD119 TAF variant
B15: 54V59D / 54R101V (antibody, V domains shown)
VH: B13 VH with I54V
VL: B14 VL
notes: KCD119 TAF variant
B16: 54V59D / 32D50I101V (antibody, V domains shown)
VH: B13 VH with I54V
VL: B13 VL with S32D, N50I, G54Y, W60F
notes: KCD119 TAF variant; full antibody captured on protein A
B17: 54V59D / 34D50V101V (antibody, V domains shown)
VH: B13 VH with I54V
VL: B13 VL with G34D, N50V, G54Y, W60F
notes: as for B16
B18: 54V59D / 32D60W101V (antibody, V domains shown)
VH: B13 VH with I54V
VL: B13 VL with S32D, G54Y
notes: as for B16
B19: 54I59D / 101V (antibody, V domains shown)
VH: B13 VH
VL: B13 VL with G54Y, W60F
notes: as for B16
B20: 54V56V / 101V (antibody, V domains shown)
VH: B13 VH with I54V, G56V, D59S
VL: B13 VL with G54Y, W60F
notes: as for B16
B21: 54V59D / 32W50I101V (antibody, V domains shown)
VH: B13 VH with I54V
VL: B13 VL with S32W, N50I, G54Y, W60F
notes: as for B16
B22: 54V59D / 34D60W101V (antibody, V domains shown)
VH: B13 VH with I54V
VL: B13 VL with G34D, G54Y
notes: as for B16
B23: 54V / 101V (antibody, V domains shown)
VH: B13 VH with I54V, D59S
VL: B13 VL with G54Y, W60F
notes: as for B16
B24: 54I59D / 54S60W101V (antibody, V domains shown)
VH: B13 VH
VL: B13 VL with G54S
notes: Light label printed 54560W101V, read as 54S60W101V; also called 54I59D / 54560W101V

T1 sequence (P00746 26-253): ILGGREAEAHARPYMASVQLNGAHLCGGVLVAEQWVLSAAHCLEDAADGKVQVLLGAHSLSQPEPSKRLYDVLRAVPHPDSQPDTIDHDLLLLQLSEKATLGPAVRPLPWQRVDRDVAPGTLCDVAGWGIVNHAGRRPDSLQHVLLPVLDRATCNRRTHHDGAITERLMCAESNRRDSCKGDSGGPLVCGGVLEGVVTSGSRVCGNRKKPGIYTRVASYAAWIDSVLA
T3 sequence (P00746 26-253): as above

The first experiment addresses T1, human Complement Factor D (CFD), purified from human serum (human, UniProt P00746 26-253).
T1 construct: serum purified (CompTech A136); also called serum purified CFD; hCFD-Comptech
Kind of experiment: SPR MX96, mAbs amine-coupled, CFD injected.
A word on the Kd: it is the constant that tells how readily two partners part at equilibrium. With B1, the Kd was 0.225 nM.
On the same count and under the same terms, as for B2, the figure is 1.39 nM.
On the same count and under the same terms, the result for B3 reads 4.32 nM.

Another experiment addresses T2, recombinant cynomolgus CFD, His-tagged (cynomolgus).
T2 construct: also called rcyCFD-His; recombinant Cyno-CFD
Kind of experiment: SPR MX96.
As to B4, the Kd came out at 9.1 nM.
Regarding B5, the Kd amounted to 18 nM.
With B6, the dissociation constant (Kd) was found to be 7.2 nM.
Same read-out and setting: the result for B7 reads 150 nM; that for B8, 5.5 nM.
The same measure, in the same setting: the result for B9 reads 6 nM; that for B10, 1.4 nM; that for B11, 1.6 nM.
B12: the Kd came out at 13 nM.

Another experiment addresses T3, serum purified human Complement Factor D (human, UniProt P00746 26-253).
T3 construct: Serum purified protein flowed over the captured antibodies; also called CFD; human CFD
As to the kind of experiment: SPR Biacore, antibody on protein A chip, single cycle kinetics, 25 C.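 Note: antibodies captured to roughly 70 RU on the protein A surface in HBS-EP+ running buffer, with kinetic constants derived by BIAevaluation fitting.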 Background: Surface plasmon resonance follows binding to a sensor surface in real time, without labels.
Method: (§1) Antibodies were diluted to 0.5 ug/ml in HBS-EP+ buffer and captured on a protein A chip for 25 seconds to reach approximately 70 resonance units. […] Binding kinetic information was obtained by the BIAevaluation software (GE).
Broadly, the koff is the rate constant with which the complex falls apart. Higher therefore signals fast dissociation. The kon is a measure of how fast the partners come together. A higher kon goes with fast association. Take B13: the Kd is 0.0125 nM, the koff was 8.54e-05 s⁻¹ and the kon worked out at 6.83e+06 M⁻¹ s⁻¹.
Molecule B14 had an equilibrium dissociation constant (Kd) of 0.00394 nM, a koff of 5.48e-05 s⁻¹ and a kon of 1.39e+07 M⁻¹ s⁻¹.
Taken in the same sequence, the figures for B15 were 0.0119 nM, 0.000141 s⁻¹ and 1.19e+07 M⁻¹ s⁻¹.
Taken in the same sequence, the figures for B16 were 0.0197 nM, 0.00016 s⁻¹ and 8.11e+06 M⁻¹ s⁻¹.
B17 registered a Kd of 0.0257 nM, a koff of 0.000187 s⁻¹ and a kon of 7.26e+06 M⁻¹ s⁻¹.
In turn, B18 registered a Kd of 0.0102 nM, a koff of 0.000128 s⁻¹ and a kon of 1.25e+07 M⁻¹ s⁻¹.
Regarding B19, the Kd is 0.0204 nM and 0.0267 nM and 0.00908 nM; the koff is 0.000152 s⁻¹ and 0.000154 s⁻¹ and 5.74e-05 s⁻¹; the kon is 7.43e+06 M⁻¹ s⁻¹ and 5.78e+06 M⁻¹ s⁻¹ and 6.32e+06 M⁻¹ s⁻¹.
Consider B20, for which the dissociation constant Kd was 0.0645 nM, the koff is 0.000351 s⁻¹ and the kon worked out at 5.44e+06 M⁻¹ s⁻¹.
Molecule B21 displayed a Kd of 0.0158 nM, a koff of 0.000105 s⁻¹ and a kon of 6.64e+06 M⁻¹ s⁻¹.
On to B22, for which binding was characterised by a dissociation constant (Kd) of 0.0213 nM, the koff is 0.000187 s⁻¹ and the on-rate constant (kon) was 8.8e+06 M⁻¹ s⁻¹.
For the molecule B23, binding was characterised by a dissociation constant (Kd) of 0.0688 nM, the koff worked out at 0.000491 s⁻¹ and the kon was determined as 7.14e+06 M⁻¹ s⁻¹.
The like results for B24 were, in that order, 0.00985 nM, 7.08e-05 s⁻¹ and 7.19e+06 M⁻¹ s⁻¹.

A further experiment addresses T3, serum purified human Complement Factor D. Kind of experiment: SPR Biacore, antibody on protein A chip, single cycle kinetics, 37 C.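 Note: antibodies captured on the protein A surface to roughly 70 RU in HBS-EP+ buffer, with rate and affinity constants fitted using BIAevaluation software.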
Method: as §1
As to B13, the affinity, expressed as Kd, was 0.00989 nM; the koff came out at 0.000118 s⁻¹; the kon came out at 1.19e+07 M⁻¹ s⁻¹.
The like results for B14 were, in that order, 0.00725 nM, 0.000242 s⁻¹ and 3.33e+07 M⁻¹ s⁻¹.
Taken in the same sequence, the figures for B15 were 0.0154 nM, 0.00037 s⁻¹ and 2.4e+07 M⁻¹ s⁻¹.
Taken in the same sequence, the figures for B16 were 0.0274 nM, 0.00041 s⁻¹ and 1.5e+07 M⁻¹ s⁻¹.
B17 registered a Kd of 0.0591 nM, a koff of 0.00079 s⁻¹ and a kon of 1.34e+07 M⁻¹ s⁻¹.
The like results for B18 were, in that order, 0.0415 nM, 0.000371 s⁻¹ and 8.93e+06 M⁻¹ s⁻¹.
With B19, the Kd is 0.0475 nM and 0.0184 nM; the koff was 0.000437 s⁻¹ and 0.000222 s⁻¹; the kon was 9.19e+06 M⁻¹ s⁻¹ and 1.21e+07 M⁻¹ s⁻¹.
For the molecule B20, binding was put at a Kd of 0.107 nM, the koff came to 0.00104 s⁻¹ and the kon amounted to 9.69e+06 M⁻¹ s⁻¹.
Taken in the same sequence, the figures for B21 were 0.0223 nM, 0.000305 s⁻¹ and 1.37e+07 M⁻¹ s⁻¹.
The like results for B22 were, in that order, 0.0531 nM, 0.00083 s⁻¹ and 1.56e+07 M⁻¹ s⁻¹.
Taken in the same sequence, the figures for B23 were 0.142 nM, 0.00158 s⁻¹ and 1.11e+07 M⁻¹ s⁻¹.
On to B24, for which the Kd is 0.0119 nM, the koff is 0.000148 s⁻¹ and the kon amounted to 1.24e+07 M⁻¹ s⁻¹.
